Experimental data as given in a protein production outcome set (Wang et al. 2014).

Test: label from the status in PepcDB records

Sequence	protein production
MKVSIIVPCYSVASKLPRCVHNLLAQTFTDWELILIDDGSTDNTWDICNSFTKNNAHIHAVHKENGGVSSARNTGIEIAKGEFITFIDSDDYVKPDYLQKLVEGQEADLVLCGFRSSTGIDFTPEPQYLIGDDLSKNIQAIVENDYLLYSPWCKLFRRDIIQKHQHRFDPEIRLGEDTIFCYKYLLYCSSIKVVASNSYFYDGVWGGYKKYVLTRQEVEYLDKAEITTLHDINQHFNCRIDLTYRGYHVAMLKGLYEKFRDYDTFEMYTRTHDVLPPEHFFANHKLSYIFWGIVELETLYVDKEYCAGKLFMQRLHHFFTIPTNQLLSYSYKMRLIHYLVKSKHYTMAHVLLIFLSILKHLEHHHHHH	failed
DFLDVQKETPRIRIAIDRVGVKNIKFPLKIHDDFAFLTLNLFVDVPADRKGADMSRAVESIQKVINAGSYGERIGDIGIAICDEALSRFNYSEKAQCEVNIQYYRRSGERYLEYRMYVETAKDRKQIMKNEIGISYVTMTACPCAMETTRALISMDNPDISDAISAIPTITHNQRNVTKLTVDNRSKMITVWDLADVMERVQGKPLDSLLKRVEEGRLVYSAHRNPKFVEDVVREIAYEAARVLGVPDEATIKVSSESDESIHPHNAYAEIDT	failed
MARGEGEFYLAGRRLTGFLSAMTYAATTYSSFMIVGLVGLAYFTGIGSLVFELAYLVATVILLSLFSRRVWRMSRERGWVSPGEMLADLLGSPWVALTASLVFLVSLVPYASAQLKGIAETIVAIAGYSPGDNTAYMVAVGVALLILLAWSLLAGVRGVVLTDAFQGLWMLTAGSLLFLWLASRVFSKSGASEVLSAMESAGLFDMWSATLLIGFVTPWVFFAVTNPQVVQRLYMPKDEESLRRMILYFFLFGLYYTVLVVAIGFLARAGVELGILSIEPQGRDQVTPQLLSLAHPLLAALVFTSIVAASVSTADSIILALASSASRDIGLLVLRLDEKGRLRLGYAAAALFTVLMAVFAATRIGYIVQLSVLSSVMLLGLAPVTIAAWVGLRVHPALAVASIATGPVLVAANVLYSLAVGGEVSLSPAKQVLGVPISVWVLAISLALTAAGIALVRGRR	failed
MSLSTARIMLVDDHPIVREGYRRLIERRPGYAVVAEAADAGEAYRLYRETTPDIVVMDLTLPGPGGIEATRHIRQWDGAARILIFTMHQGSAFALKAFEAGASGYVTKSSDPAELVQAIEAILAGRRAMSPDIAQEIAEERVEGREGHHHHHH	not failed
MDIKVSGRKTTVTDALRAHVDEKIGEALKVFDIEPMTVDVVLRYEKNPSNPNPAIVEVTARARGSVIRVAEHGADMYAAIDLSADKVTRQLRKFKTKVVDNRQGGASAADVAPVERVEDLADLLLPEEDDDLLVREKVIDVTPMTEEQALVQTDLLGHDFYVFENATTGLINVVYHRKNGGYGIIKPRIETLDE	failed
MQFGIFTVGDVTPDPTTGRTPTEHERIKAMTTIAKHAEDVGLDVFATGEHHNPPFVPSSPTTMLGYLAAQTEKIILSTSTTLITTNDPVKIAEDYAMLQHLADGRVDLMMGRGNTAPVYPWFGQDIRQGIPLALEHYRLLRRLWDEDVVDWQGQFRTPLQGFTSTPRPLDGIAPFVWHGSIRSPEIAEIAAFHGDGFFANNIFWPKEHYIALINLYRERYEHYGHGRADQAIVGLGGQVFMRRNAKDAVDEFRPYFDNAPVYGHGPSLEDFTEQTPLTVGTPEQVIEKTLTFADFFGDYQRQLFLVDHAGLPLKTVLEQLDLLGGEVVPVLRKEFAARR	failed
MPQDPRHPEHQYLDLVKHILENGARRMDRTGTGTLSVFGATMRFSLEDNTFPLLTTRRVFYRGVVEELLFFLRGETDSKVLEKKGVRIWEKNGAKQFLQSVGIDREEGDLGPIYGFQWRHFGARYETSASSYEGKGVDQIASAIAAIRANPASRRIVVSAWNPTDLGSMALPPCHVLFQFNVTDGKLSCAMYQRSGDMGLGVPFNIASYSLLTILVAHLTGLQPGEFVHFLGDAHVYLDHVDSLRQQIQRPPRAFPKLFVSPKGPRTEPEHFQYEDFELVGYDPHPAIKMNMSA	not failed
MASKSVHADITLLLDMEGVIREATLSPTMAAESVDGWLGRRWSDIAGAEGGDKVRRMVEDARRSGISAFRQINQPFPSGVEIPIEFTTMLLGDRTGMIAVGKNMQAVTELHSRLIAAQQAMERDYWRLRELETRYRLVFDAAADAVMIVSAGDMRIVEANRAAVNAISRVERGNDDLAGRDFLAEVAAADRDAVRDMLAQVRQRGTALSVLVHLGRYDRAWMLRGSLMSSERRQVFLLHFTPVTTTPAIDDVDDDAVLRGLIDRIPDGFVALDSEGVVRHANQAFLDLVQIGSKPAAVGRSLGVWMGRPGADLSSLLTLLRRYKTVRLFQTTIRGELGTETEVEVSAVDGEDDQYIGVLMRNVARRLDAADDHDALRQALGPISKQLGRSSLRKLVKNAVSIVEQHYVKEALLRSKGNRTATAELLGLSRQSLYAKLNCYGFDDKGVVASAADGAEGASDDAED	failed
MLTFEKVLEIFADYLAADKTIEVYISRHGCVRVEFDQDFHYCTGEVCHTPRKLFDLLSDDYQTYLEIELTKGRRELTEDDIKEADTLCKRYLDRWKEELGLEHHHHHH	not failed
SKGRPQIDSSKATDKINPMDFTFVEINEAVKLVEMGVATPQDIDTAIKLGLNRPFGPFELAKQFGAEQIAKRLEELAKQFGKKIFEPAKTLKEGKLEELLKAGKAE	not failed
MRFFYFSGEIMEKILVIRNDKLGDFMQAWPAFAMLKASNPKLKLTALVPSYTASLAEICPFIDHVIIDSKKNDKTDFKRLVQEIKAQQFDGMISFFSNTHNGKLAWKSGIKYRLAPATKWVQILYNHRLTQRRSRSEKSEAEYNQDLVRTFLQKHNMPVVEPKPPYLIFEKSAVENQRVFLQENLGLSANKKWIFVHSGSGGSATNLSLAQYADLIKGLLAEFDCNVVLTAGPGESEKAYELANLVNDLRVAIYDKNKGLVDFAHSLACADLFIAGSTGPLHLSSAFNIPTIGFYPNSRSSQPRRWKPINDVDKHIAFCPPAGKESQMNLELISIDNALAEISLFIRNMWQTSNNI	failed
MKERVIITGANGQLGKQLQEELNPEEYDIYPFDKKLLDITNISQVQQVVQEIRPHIIIHCAAYTKVDQAEKERDLAYVINAIGARNVAVASQLVGAKLVYISTDYVFQGDRPEGYDEFHNPAPINIYGASKYAGEQFVKELHNKYFIVRTSWLYGKYGNNFVKTMIRLGKEREEISVVADQIGSPTYVADLNVMINKLIHTSLYGTYHVSNTGSCSWFEFAKKIFSYANMKVNVLPVSTEEFGAAAARPKYSIFQHNMLRLNGFLQMPSWEEGLERFFIETKSH	not failed
MQEELAWETDGLLPLERQLHEAARQNNVGRMQELIGRRVNTRARNHVGRVALHWAAGAGHEQAVRLLLEHEAAVDEEDAVGALTEARLCFGMNALLLSAWFGHLRILQILVNSGAKIHCESKDGLTLLHCAAQKGHVPVLAFIMEDLEDVALDHVDKLGRTAFHRAAEHGQLDALDFLVGSGCDHNVKDKEGNTALHLAAGRGHMAVLQRLVDIGLDLEEQNAEGLTALHSAAGGSHPDCVQLLLRAGSTVNALTQKNLSCLHYAALSGSEDVSRVLIHAGGCANVVDHQGASPLHLAVRHNFPALVRLLINSDSDVNAVDNRQQTPLHLAAEHAWQDIADMLLIAGVDLNLRDKQGKTALAVAVRSNHVSLVDMIIKADRFYRWEKDHPSDPSGKSLSFKQDHRQETQQLRSVLWRLASRYLQPREWKKLAYSWEFTEAHVDAIEQQWTGTRSYQEHGHRMLLIWLHGVATAGENPSKALFEGLVAIGRRDLAGWSTMARSQLTATSASRVQMILVPQPPE	failed
MARKNQKAPWEPEEEIIWVSKSEMKRDMEELQKLGEELVGLKPAVLEKFPLSEDLREAIADAQRFKNEARRRQLQRIGKLMRYEDPEPIQAALDKVRNKHSQATAALHKLEMLRDRVVEEGDKAIDDVMELYPEADRQRLRQLARQAAKEKKAGKPAKSYREIFQILKALNEEE	not failed
MASSDRGTSTLQGWHALQTLWRGDQRSVIQGLPHSQLAPAWQLLLLGDGSPTRHLQLLTGEPTAVDVIEMAPIADQDDGAPPPIRAIAGPRLRRQVWLRTASGQRLAYATSWWTQQRVDAYLRDRAQPIWANLADLRTELYRDIQGVEYGDSAALSEAFGQTGPFWGRYYLFWHQGQPLTLIYEVFSPAIATYLGPSTPQPVV	failed
MLLSYLIYGLRNGFMVTLGGIAGFVVGAIAAFMAVPLVSGWVTDSGWRLTATVGAAVVLIALGHGLGTMIGRKVRHTVRIKPLHAVDRLIGGVVSVVVAALVMSMLAFSISSLGVPFVSQQLAESRVIRYIDDLTPTPVKSTMAQLRSTVIGDGIPKLIEGIGPVTPVPVPNESTDTPALNQAAESVLKIAGTAFECGQNQTGSGFVVSPGRVVTNAHVVAGVSQPVVEVPDGGALPGRVVYFDSQRDIAVLAVDGLQSSPLPLSADLPAGSSAAFAGYPHGGPFQSKPATVQGISTILVPDIYGNNPSPEQVYKLAGDVQPGNSGGPLLTMQGQVAGLIFAKTTTDAALGFALTMADLEPVAAQAPGLSNPVSAGQCTRK	failed
MKITTKGRYGLTITLELAKRIGDGPISLRSIAQDKNLSEHYLEQLIGPLRNAGIVKSIRGAHGGYVLNGDPEKITAGDIIRTLEGPIVLVESMEDEEAAQRELWTRMRNAVRDVLDQTTLSDLLKHSTDSELTDGYMFYI	not failed
MSDFNLVGVIRVMPTDPDVNLDELEEKLKKVIPEKYGLAKVEREPIAFGLVALKFYVLGRDEEGYSFDEVAEKFEEVENVESAEVETVSRI	not failed
MDKNNNNLRLILAIALSFLFIALYSYFFQKPNKTTTQTTKQETTNNHTATSPNAPNAQHFSTTQTTPQENLLSTISFEHARIEIDSLGRIKQVYLKDKKYLTPKQKGFLEHVGHLFSSKENAQPPLKELPLLAADKLKPLEVRFLDPTLNNKAFNTPYSASKTTLGPNEQLVLTQDLGTLSIIKTLTFYDDLHYDLKIAFKSPNNLIPSYVITNGYRPVADLDSYTFSGVLLENSDKKIEKIEDKDAKEIKRFSNTLFLSSVDRYFTTLLFTKDPQGFEALIDSEIGTKNPLGFISLKNEANLHGYIGPKDYRSLKAISPMLTDVIEYGLITFFAKGVFVLLDYLYQFVGNWGWAIILLTIIVRIILYPLSYKGMVSMQKLKELAPKMKELQEKYKGEPQKLQAHMMQLYKKHGANPLGGCLPLILQIPVFFAIYRVLYNAVELKSSEWILWIHDLSIMDPYFILPLLMGASMYWHQSVTPNTMTDPMQAKIFKLLPLLFTIFLITFPAGLVLYWTTNNILSVLQQLIINKVLENKKRMHAQNKKEH	failed
MTPHPARSKISPYRDIEIFMDLEDWSARLKVFADATRVRLLALLEQEELTVAELSAITRLAQPRVSTHLAKLKEAGLVRDRRAGVSAYYRFDEVSLDPAQRALWLALSTGSDDPLLRQDAERVAAVLANRAADQNWADSVAGDMERHYSPGRTWEALARTALPLLETGDVLDIASGDGVLAELVAPHATRYICIDTSARVVAAASERLRKLRNVEVREGDMHALPFPDASFDLVVLMHALTYAAKPAQAVAESARVLRPGGRLLLCSLAKHEHRAAVQAYGHVNLGFAAKELRKFVEKAGLDVSNLESVTREKRPPHFEVISLIAMKPGIGNRESGLVEGKSNASRRANA	failed
MINMKVAISMDVDKISNSFEDCKYFLIVRIDDNEVKSTKVIFNDESGKKSIVKENVNAIICKNISEENYKKFSKKIEIYHAEGDDVDKNISLFIEGELSKISNP	not failed
MALPRPTSPHARGSNRTPAIMRLVLGACVPGLLTLTWLYGPGTLLNLAWASLVALACEAAMLALRKRPPGVFLKDGSALVTALLLAVALPPYAPWWLTLVATFFALVFGKHLYGGLGQNPFNPAMLGYVVALVSFPLEMTRWPSPDSALGLPDSLREFLGLATRPDAWAHATALDVLKTDRSLTVDELFAGNPAFGHLGSAGSEWVNLAFLLGGLFLLWRRLFTWHAPLGMLAGLFAMSLLFWNGSGSDSHGSPLFHLFSGATMLGAFFIVTDPVSGATSNRGRLVFGLGVGVLTYVIRAWGGYPDGVAFAVLLMNLAAPTIDYYTRPRTYGHRKAERGFKAGD	failed
